In patent publication US5985836A, “Alpha-1 proteinase inhibitor binding peptides” (Bayer Corporation, priority 1998, dated 1999):
Ends that are not written are not given here.

Legend:
A1PI [1] = biological target: T1, A1PI (Homo sapiens, UniProt P01009); test: A1PI purification from 5 mg hSA + 1 mg A1PI on peptide column, A1PI mass balance; assay type: binding; conditions: A1PI, 5 mg hSA + 1 mg A1PI; for Mass Protein per Eluate Fraction, 1M NaCl / Mass Protein per Eluate Fraction, 2% Ac. Acid / Mass Protein per Eluate Fraction, Flow / Mass Protein per Eluate Fraction, 2% Acetic Acid: * Below detection limit
T1 construct: Human plasma is currently the only approved source of therapeutic AlPI
T1 sequence (P01009 25-418): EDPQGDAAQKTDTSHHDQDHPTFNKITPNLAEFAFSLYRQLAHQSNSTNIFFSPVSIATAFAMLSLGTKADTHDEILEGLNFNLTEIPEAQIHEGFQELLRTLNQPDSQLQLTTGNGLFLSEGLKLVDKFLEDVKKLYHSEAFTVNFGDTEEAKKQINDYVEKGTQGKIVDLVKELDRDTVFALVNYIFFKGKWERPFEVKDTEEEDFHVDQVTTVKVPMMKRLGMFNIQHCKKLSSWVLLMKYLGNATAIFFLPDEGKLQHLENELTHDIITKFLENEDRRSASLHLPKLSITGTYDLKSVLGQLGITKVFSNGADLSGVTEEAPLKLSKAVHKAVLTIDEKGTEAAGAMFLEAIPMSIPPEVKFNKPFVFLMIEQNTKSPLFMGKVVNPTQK
Procedure: Confirmatory binding assays were performed in a column chromatographic format on a microbore HPLC using individual peptide sequences synthesized directly onto the Toyopearl 650 M Chelate resin which had been modified with Totda followed by an alanine residue (A-Totda-Toyopearl), at a final substitution density of 0.1 mmole/g resin. The resin was packed into 0.4×5 cm columns (Thomson, Springfield, Va.) and tested on the Michrom HPLC system (Michrom BioResources, Auburn, Calif.). The elution program for all trials utilized the following method. The column was pre-equilibrated with equilibration buffer (as above). 1 ml of sample was injected and allowed sufficient time to flowthrough the column using equilibration buffer. The column was then washed with step elutions of 1M NaCl and 3M NaCl in equilibration buffer. The column was exposed to equilibration buffer with 0.1M NaCl. Any remaining protein was eluted with elution buffer (2% by volume glacial acetic acid in water).
A Gilson FC204 fraction collector at the HPLC outlet collected individual eluates for further analysis. Fractions collected from the 2% acetic acid eluates were neutralized with 2M Tris, pH 10.5 to bring the pH to neutrality. The protein samples were reconstituted in equilibration buffer unless otherwise stated. The samples were analyzed by the integration of the absorbance at 280 nm or by immunonephelometry. The specific method of determination is presented for each figure.
Columns were assayed with a mixture of 5 mg human serum albumin (hSA)+1 mg AlPI at 4° C. (Table 4, Seq. ID 1-11, 15, 17) and 20° C. (Table 5, Seq. ID 1-10, 13, 15, 17). The chromatography method was modified to provide for a 10 minute residence time of sample in the column by decreasing the flow to 17 μl/min (10 cm/hr) upon injection. Following the incubation, the flow was set at 865 μl/min (413 cm/hr) for the step elutions of 1M NaCl, 3M NaCl, and 2% acetic acid. The mass balances presented are based upon immunonephelometry. The Percent Eluted value is protein-specific and based on the amount of the protein eluted in a […]

Immunoglobulin G (IgG) = test: Purification from Effluent II+III, IgG mass balance; assay type: binding, human; conditions: 1 ml Eff. II+III, 4° C.
Procedure: (§1) Sequences 1-11 and 15 were assayed with Effluent II+III (Eff. II+III). Eff. II+III is a process intermediate in the Cohn plasma fractionation process. The feed stream contains 20% (by volume) ethanol, 20-25 mg/ml hSA and approximately 1 mg/ml AlPI. The stream also contains other proteins including anti-thrombin III (AT3), immunoglobin G (IgG), immunoglobin A (IgA), apolipoprotein alpha-1 (Apo A-1), transferrin (Trf), haptoglobin (Hpt), and alpha-1 acid glycoprotein (AAG) at concentrations ranging from 0.1-1 mg/ml.
(§2) The columns were assayed using the same technique as the hSA+AlPI experiments, allowing for a 10 minute residence time followed by a constant flow rate of 865 μl/min with step elutions of 1M NaCl, 3M NaCl, and 2% acetic acid. All experiments were conducted at 4° C. The mass balances for the injection of 1 ml Eff. […] The AlPI was enriched from 3% of the total protein in the feed to upwards of 50% in the acid eluate.

A1PI [2] = biological target: T1, A1PI; test: A1PI yield from dialyzed (aqueous) Effluent II+III; assay type: binding; conditions: 4° C.; for Mass A1PI per Eluate Fraction, 1M NaCl / Mass A1PI per Eluate Fraction, 2% Acetic Acid / Mass A1PI per Eluate Fraction, Flowthrough: 1 ml dialyzed Eff. II+III (ethanol removed); for Percent Eluted by Fraction, 1M NaCl / Percent Eluted by Fraction, 2% Acetic Acid / Percent Eluted by Fraction, Flowthrough: A1PI, 1 ml dialyzed Eff. II+III
Procedure: Effluent II+III was dialyzed against equilibration buffer at 4° C. to remove the ethanol using a 15,000 molecular weight cut-off membrane. Nephelometry of the Eff. […] A portion of the identified sequences were assayed under the same conditions applied for neat Eff. II+III at 4° C. […] II+III compared to the neat, ethanol-containing feed. The binding strength differed for the aqueous feed as more AlPI eluted in 1M NaCl for the aqueous feed. The AlPI eluted in the 1M NaCl fractions was not as enriched as that eluted in the acid eluates.

[3] = biological target: T2, apolipoprotein alpha-1 (Apo A-1) (Homo sapiens, UniProt P02647); test: Purification from Effluent II+III, Apo A-1 mass balance; assay type: binding; conditions: 1 ml Eff. II+III, 4° C.
T2 construct: Eff; II+III is a process intermediate in the Cohn plasma fractionation process; tissue Bayer Corporation (Clayton, N.C.); host or cells: plasma fraction: Cohn Effluent II+III
T2 sequence (P02647 19-267): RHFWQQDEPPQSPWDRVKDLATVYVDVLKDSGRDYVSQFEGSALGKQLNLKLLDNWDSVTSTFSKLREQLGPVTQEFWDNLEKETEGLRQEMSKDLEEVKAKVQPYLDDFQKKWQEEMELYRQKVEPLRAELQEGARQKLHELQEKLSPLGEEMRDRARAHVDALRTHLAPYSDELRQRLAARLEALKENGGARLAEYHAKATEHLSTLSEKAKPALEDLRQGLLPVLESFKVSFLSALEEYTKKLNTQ
Procedure: as §1, §2

A1PI [4] = biological target: T1, A1PI; test: Purification of A1PI from Effluent II+III on peptide column, A1PI mass balance; assay type: binding; conditions: 1 ml Eff. II+III, 4° C.
Procedure: as §1, §2

Immunoglobulin A (IgA) = test: Purification from Effluent II+III, IgA mass balance; assay type: binding, human; conditions: 1 ml Eff. II+III, 4° C.
Procedure: as §1, §2

A1PI [5] = biological target: T1, A1PI; test: A1PI binding on peptide-resin column, injection of 1 mg A1PI in equilibration buffer; conditions: for % of Total A1PI Eluted by Fraction (Based on Absorbance at 280 nm), 1M NaCl / % of Total A1PI Eluted by Fraction (Based on Absorbance at 280 nm), 2% Acetic Acid / % of Total A1PI Eluted by Fraction (Based on Absorbance at 280 nm), Flowthrough: Trp position mutations, 1 mg A1PI
Outline: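 Peptides synthesized on A-Totda-Toyopearl chelate resin (0.1 mmole/g) packed in 0.4×5 cm columns; 1 mg A1PI injected in equilibration buffer at 4 °C or 20 °C, 865 or 523 μl/min. Flowthrough, 1M/3M NaCl washes and 2% acetic acid eluate quantified by A280 or immunonephelometry as percent of total eluted.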

[6] = 4° C., relative to total eluted
[7] = 20° C., relative to total eluted
[8] = * as in Tables 4, 5 (below detection limit)
[9] = A1PI, * as in Tables 4, 5 (below detection limit)
[10] = 1 mg A1PI in equilibration buffer, 4° C.
[11] = 1 mg A1PI in equilibration buffer, 20° C.
[12] = Table 10, 4° C., relative to total loaded
[13] = Table 10, 20° C., relative to total loaded
[14] = Table 11, * Below detection limit

Substance: IIWLYK
- Mass Protein per Eluate Fraction, 1M NaCl (A1PI [1]; 4° C.): 0.10 mg
- Mass Protein per Eluate Fraction, 2% Ac. Acid (A1PI [1]; 4° C.): 0.18 mg
- Mass Protein per Eluate Fraction, Flow (A1PI [1]; 4° C.): 0.52 mg
- Percent Eluted by Fraction, 1M NaCl (A1PI [1]; [6]): 13%
- Percent Eluted by Fraction, 2% Ac. Acid (A1PI [1]; [6]): 23%
- Percent Eluted by Fraction, 3M NaCl (A1PI [1]; [6]): 0%
- Percent Eluted by Fraction, Flow (A1PI [1]; [6]): 65%
- Mass Protein per Eluate Fraction, 1M NaCl (A1PI [1]; 20° C.): 0.07 mg
- Mass Protein per Eluate Fraction, 2% Ac. Acid (A1PI [1]; 20° C.): 0.47 mg
- Mass Protein per Eluate Fraction, Flow (A1PI [1]; 20° C.): 0.26 mg
- Percent Eluted by Fraction, 1M NaCl (A1PI [1]; [7]): 9%
- Percent Eluted by Fraction, 2% Ac. Acid (A1PI [1]; [7]): 58%
- Percent Eluted by Fraction, 3M NaCl (A1PI [1]; [7]): 0%
- Percent Eluted by Fraction, Flow (A1PI [1]; [7]): 33%
- Percent Eluted by Fraction, 1M NaCl (Immunoglobulin G (IgG)): 9%
- Percent Eluted by Fraction, 2% Acetic Acid (Immunoglobulin G (IgG)): 0%
- Percent Eluted by Fraction, 3M NaCl (Immunoglobulin G (IgG)): 0%
- Percent Eluted by Fraction, Flow (Immunoglobulin G (IgG)): 91%
- Mass Protein per Eluate Fraction, 1M NaCl (Immunoglobulin G (IgG); [8]): 0.02 mg
- Mass Protein per Eluate Fraction, Flow (Immunoglobulin G (IgG); [8]): 0.23 mg
- Mass A1PI per Eluate Fraction, 1M NaCl (A1PI [2]): 0.05 mg
- Mass A1PI per Eluate Fraction, 2% Acetic Acid (A1PI [2]): 0.38 mg
- Mass A1PI per Eluate Fraction, Flowthrough (A1PI [2]): 0.19 mg
- Percent Eluted by Fraction, 1M NaCl (A1PI [2]): 9%
- Percent Eluted by Fraction, 2% Acetic Acid (A1PI [2]): 60%
- Percent Eluted by Fraction, Flowthrough (A1PI [2]): 31%
- Percent Eluted by Fraction, 1M NaCl [3]: 0%
- Percent Eluted by Fraction, 2% Acetic Acid [3]: 100%
- Percent Eluted by Fraction, 3M NaCl [3]: 0%
- Percent Eluted by Fraction, Flow [3]: 0%
- Mass Protein per Eluate Fraction, 2% Acetic Acid [3, 8]: 0.43 mg
- Percent Eluted by Fraction, 1M NaCl (A1PI [4]; A1PI): 0%
- Percent Eluted by Fraction, 2% Acetic Acid (A1PI [4]; A1PI): 79%
- Percent Eluted by Fraction, 3M NaCl (A1PI [4]; A1PI): 0%
- Percent Eluted by Fraction, Flow (A1PI [4]; A1PI): 21%
- Mass Protein per Eluate Fraction, 2% Acetic Acid (A1PI [4]; [9]): 0.50 mg
- Mass Protein per Eluate Fraction, Flow (A1PI [4]; [9]): 0.13 mg
- Percent Eluted by Fraction, 1M NaCl (Immunoglobulin A (IgA)): 34%
- Percent Eluted by Fraction, 2% Acetic Acid (Immunoglobulin A (IgA)): 49%
- Percent Eluted by Fraction, 3M NaCl (Immunoglobulin A (IgA)): 0%
- Percent Eluted by Fraction, Flow (Immunoglobulin A (IgA)): 17%
- Mass Protein per Eluate Fraction, 1M NaCl (Immunoglobulin A (IgA); [8]): 0.12 mg
- Mass Protein per Eluate Fraction, 2% Acetic Acid (Immunoglobulin A (IgA); [8]): 0.17 mg
- Mass Protein per Eluate Fraction, Flow (Immunoglobulin A (IgA); [8]): 0.06 mg
- Percent A1PI Eluted by Fraction Based on Absorbance at 280 nm, 1M NaCl (A1PI [5]; [10]): 52%
- Percent A1PI Eluted by Fraction Based on Absorbance at 280 nm, 2% Acetic Acid (A1PI [5]; [10]): 48%
- Percent A1PI Eluted by Fraction Based on Absorbance at 280 nm, Flowthrough (A1PI [5]; [10]): 0%
- Percent A1PI Eluted by Fraction, 1M NaCl (A1PI [5]; [11]): 17%
- Percent A1PI Eluted by Fraction, 2% Acetic Acid (A1PI [5]; [11]): 55%
- Percent A1PI Eluted by Fraction, Flowthrough (A1PI [5]; [11]): 28%

Substance: VIYLVR: VIWLVR with Trp at position 3 replaced by Tyr
- Mass Protein per Eluate Fraction, 1M NaCl (A1PI [1]; Table 10, 4° C.): 0.12 mg
- Mass Protein per Eluate Fraction, 2% Acetic Acid (A1PI [1]; Table 10, 4° C.): 0.75 mg
- Mass Protein per Eluate Fraction, Flow (A1PI [1]; Table 10, 4° C.): 0.12 mg
- Percent Eluted by Fraction, 1M NaCl (A1PI [1]; [12]): 12%
- Percent Eluted by Fraction, 2% Acetic Acid (A1PI [1]; [12]): 76%
- Percent Eluted by Fraction, 3M NaCl (A1PI [1]; [12]): 0%
- Percent Eluted by Fraction, Flow (A1PI [1]; [12]): 12%
- Mass Protein per Eluate Fraction, 1M NaCl (A1PI [1]; Table 10, 20° C.): 0.07 mg
- Mass Protein per Eluate Fraction, 2% Acetic Acid (A1PI [1]; Table 10, 20° C.): 0.48 mg
- Mass Protein per Eluate Fraction, Flow (A1PI [1]; Table 10, 20° C.): 0.13 mg
- Percent Eluted by Fraction, 1M NaCl (A1PI [1]; [13]): 11%
- Percent Eluted by Fraction, 2% Acetic Acid (A1PI [1]; [13]): 70%
- Percent Eluted by Fraction, 3M NaCl (A1PI [1]; [13]): 0%
- Percent Eluted by Fraction, Flow (A1PI [1]; [13]): 19%
- Mass A1PI per Eluate Fraction, 1M NaCl (A1PI [2]): 0.12 mg
- Mass A1PI per Eluate Fraction, 2% Acetic Acid (A1PI [2]): 0.16 mg
- Mass A1PI per Eluate Fraction, Flowthrough (A1PI [2]): 0.46 mg
- Percent Eluted by Fraction, 1M NaCl (A1PI [2]): 16%
- Percent Eluted by Fraction, 2% Acetic Acid (A1PI [2]): 22%
- Percent Eluted by Fraction, Flowthrough (A1PI [2]): 62%
- Mass A1PI per Eluate Fraction, 1M NaCl (A1PI [4]; [14]): 0.05 mg
- Mass A1PI per Eluate Fraction, 2% Acetic Acid (A1PI [4]; [14]): 0.57 mg
- Mass A1PI per Eluate Fraction, Flowthrough (A1PI [4]; [14]): 0.22 mg
- Percent Eluted by Fraction, 1M NaCl (A1PI [4]; Table 11, A1PI): 6%
- Percent Eluted by Fraction, 2% Acetic Acid (A1PI [4]; Table 11, A1PI): 68%
- Percent Eluted by Fraction, Flowthrough (A1PI [4]; Table 11, A1PI): 27%
- % of Total A1PI Eluted by Fraction (Based on Absorbance at 280 nm), 1M NaCl (A1PI [5]; 4° C.): 28%
- % of Total A1PI Eluted by Fraction (Based on Absorbance at 280 nm), 2% Acetic Acid (A1PI [5]; 4° C.): 72%
- % of Total A1PI Eluted by Fraction (Based on Absorbance at 280 nm), Flowthrough (A1PI [5]; 4° C.): 0%
- % of Total A1PI Eluted by Fraction (Based on Absorbance at 280 nm), 1M NaCl (A1PI [5]; 20° C.): 15%
- % of Total A1PI Eluted by Fraction (Based on Absorbance at 280 nm), 2% Acetic Acid (A1PI [5]; 20° C.): 85%
- % of Total A1PI Eluted by Fraction (Based on Absorbance at 280 nm), Flowthrough (A1PI [5]; 20° C.): 0%
